Measurements from US20150252107A1, “APLNR Modulators and Uses Thereof” (Regeneron Pharmaceuticals, Inc., priority 2013, published 2015).
No end group written: not given here.

T1: hAPLNR (Homo sapiens, UniProt P35414)
T1 construct: expressed in transfected cells
T1 sequence (P35414 1-380): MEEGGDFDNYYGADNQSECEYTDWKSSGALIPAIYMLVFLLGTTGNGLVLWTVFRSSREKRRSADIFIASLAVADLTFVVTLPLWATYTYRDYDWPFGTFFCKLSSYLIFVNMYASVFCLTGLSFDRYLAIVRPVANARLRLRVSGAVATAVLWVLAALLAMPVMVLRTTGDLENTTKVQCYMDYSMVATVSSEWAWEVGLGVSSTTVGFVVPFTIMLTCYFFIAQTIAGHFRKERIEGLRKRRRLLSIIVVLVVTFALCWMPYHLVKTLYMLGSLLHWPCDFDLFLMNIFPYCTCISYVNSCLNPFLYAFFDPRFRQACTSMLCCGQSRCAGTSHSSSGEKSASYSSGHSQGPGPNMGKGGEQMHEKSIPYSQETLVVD


Key:
[1] = molecular target: T1, hAPLNR; test: CRE assay of modified apelin peptides in HEK293/CRE-luc/hAPLNR cells; type: cell-based; settings: Table 9; 5 μM forskolin
Experimental: After 5 hours of incubation at 37° C. in 5% CO2, luminescence was measured following the addition of One Glo reagent (Promega, #E6051) using a Victor X instrument (Perkin Elmer). The data were fit by nonlinear regression to a 4-parameter logistic equation with Prism 5 software (GraphPad).

[2] = molecular target: T1, hAPLNR; test: cyclic AMP (CRE-luciferase) assay, activation of hAPLNR in HEK293/CRE-luc/hAPLNR cells; type: cell-based; settings: without Apelin; for % Activation at 100 nM mAb (at 5 uM Forskolin) / % Activation at 100 nM mAb (at 10 uM Forskolin): Table 6A, % of maximum Apelin activation
Experimental: The ability of anti-APLNR antibodies to activate hAPLNR-mediated cell signaling was measured using a cyclic AMP assay. The hAPLNR is a 7-transmembrane G-protein coupled receptor (GPCR).
(§1) The resulting cell line, HEK293/CRE-luc/hAPLNR, was maintained in DMEM containing 10% FBS, NEAA, penicillin/streptomycin, and 100 μg/mL Hygromycin B.
(§2) Testing of antibodies included a no antibody control.
(§3) The results of all assays were analyzed using nonlinear regression (4-parameter logistics) within Prism 5 software (GraphPad).

[3] = molecular target: T1, hAPLNR; test: cyclic AMP (CRE-luciferase) assay, inhibition of hAPLNR in the presence of 100 pM Apelin; type: cell-based; settings: Tables 6C and 6D
Experimental: as §1, §2, §3

[4] = test system: HEK293 parental cells; test: FACS binding to HEK293 parental cells; settings: 10 μg/mL antibody
Experimental: Binding ratios for human APLNR binding to purified anti-APLNR monoclonal antibodies were determined by a fluorescence-activated cell sorting (FACS) binding assay. […] The resulting stable cell lines, HEK293/CRE-luc/hAPLNR and HEK293/CRE-luc/MfAPLNR, were maintained in DMEM containing 10% FBS, NEAA, and penicillin/streptomycin with either 100 μg/mL Hygromycin B for hAPLNR cells or 500 μg/mL G418 for MfAPLNR cells.
For the FACS analysis, HEK293 parental, HEK293/CRE-luc/hAPLNR, and, HEK293/CRE-luc/mfAPLNR cells were dissociated using Enzyme Free Dissociation reagent (#S-004, Millipore, Billerica, Mass., USA) and 10^6 cells/well were plated onto 96-well v-bottom plates in PBS containing 1% FBS. […] Cells were then filtered and analyzed on Accuri Flow Cytometer (BD Biosciences, San Jose, Calif., USA). Unstained and secondary antibody alone controls were also tested for binding to all cell lines. […] Geometric mean (Geom. mean) of fluorescence for each antibody was then normalized to geometric mean of unstained cells to obtain relative binding of antibody (binding ratios) per each cell type: HEK293 (parental), HEK293/CRE-luc/hAPLNR and HEK293/CRE-luc/MfAPLNR.

Row | Molecule | % Activation at 100 nM mAb (at 5 uM Forskolin) [2] | % Activation at 100 nM mAb (at 10 uM Forskolin) [2] | inhibition (maximum blockade) of 100ρM Apelin activation [3] | Binding Ratio of Geom. Mean to Unstained Cells, HEK293 Parental [4] | further results
1 | RPRLSHKGPM [Apelin66-75] |  |  |  |  | EC50 [1]: 2.17 pM
2 | PRLSHKGPM [Apelin67-75] |  |  |  |  | EC50 [1]: 374000 pM
3 | CSCC[C@H](NC(=O)[C@@H]1CCCN1C(=O)CNC(=O)[C@H](CCCCN)NC(=O)[C@H](Cc1c[nH]cn1)NC(=O)[C@H](CO)NC(=O)[C@H](CC(C)C)NC(=O)[C@H](CCCNC(=N)N)NC(=O)[C@@H]1CCCN1)C(=O)N1CCC[C@H]1C(=O)N[C@@H](Cc1ccccc1)C(=O)O [Apelin-11, reference compound] |  |  |  |  | EC50 [1]: 438 pM
4 | CSCC[C@H](NC(=O)[C@@H]1CCCN1C(=O)CNC(=O)[C@H](CCCCN)NC(=O)[C@H](Cc1c[nH]cn1)NC(=O)[C@H](CO)NC(=O)[C@H](CC(C)C)NC(=O)[C@H](CCCNC(=N)N)NC(=O)[C@@H]1CCCN1C(=O)[C@@H](N)CCCNC(=N)N)C(=O)N1CCC[C@H]1C(=O)O [Apelin66-76] |  |  |  |  | EC50 [1]: 5.19 pM
5 | H4H9101P: anti-APLNR antibody, HCVR/LCVR SEQ ID NOs 146/154, human IgG4 Fc (antibody, V domains shown, human IgG4 Fc) VH: QVQLVQSGAEVKKPGASVEVSCKASGYTFTDYYIHWIRQAPGQGLEWMGWINPDSGRTNYAQKFQVRVTMTRDTSITTAYMELNRLKSDDTAVYYCARGPLRGYSGYDFFDYWGQGTLVTVSS VL: DIQLTQSPSFLSASVGDRVTITCWASQGISSYLAWYQQKPGKAPKLLIYAASTLQSGVPSRFSGSGSGTEFTLTISSLQPEDFASYFCQQLNSNPRTFGQGTKVEIK | No Activation |  | did not demonstrate any measurable blockade |  | 
6 | H2aM9227N: anti-APLNR antibody, HCVR/LCVR SEQ ID NOs 50/58, mouse IgG2a Fc (antibody, V domains shown, mouse IgG2a Fc) VH: EVQLVESGGGLVQPGGSLRLSCAASGFTFSSFWMSWVRQVPGKGLEWVANIKQDGSEKYYVDSVKGRFTISRDNAKNSLYLQMNSLRAEDTAVYYCARDRFGYSFYDKGVRYYYGMDVWGQGTTVTVSS VL: DIQMTQSPSSLSVSVGDRVTITCRASQGIRNDLGWYQQKPGKAPKRLIYATSSLQSGVPSRFSGSGSGTEFTLTISGLQPEDFATYYCLQHNSYPRTFGQGTKVEIK |  | 12% |  | 4 | activation of hAPLNR, % of maximum Apelin activation at 100 nM, the highest antibody dose tested ([2]; text on Table 6A): 12%
7 | H4H9113P: anti-APLNR antibody, HCVR/LCVR SEQ ID NOs 210/218, human IgG4 Fc (antibody, V domains shown, human IgG4 Fc) VH: QVQLVQSGAEVKKPGASVEVSCKASGYTFTDYYIHWIRQAPGQGLEWMGWINPDSGRTNYAQKFQVRVTMTRDTSITTAYMELNRLKSDDTAVYYCARGPLRGYSGYDFFDYWGQGTLVTVSS VL: DIQMTQSPSSLSASVGDRVTITCRASQGIRNDLGWYQQKPGKAPNRLIYAASSLQSGVPSRFSGSGSGTEFTLTISSLHPEDFATYSCLQHNSFPLTFGGGTKVEIK | No Activation |  | did not demonstrate any measurable blockade |  | 
8 | H2aM9228N: anti-APLNR antibody, HCVR/LCVR SEQ ID NOs 66/74, mouse IgG2a Fc (antibody, V domains shown, mouse IgG2a Fc) VH: EVQLVESGGGLVQPGGSLRLSCAASGFTFSNYWMSWVRLAPGKGLEWVANIKQDGSERYYVGSVKGRFTISRGDAKNSLYLQMNSLRAEDTAVYYCARDRFGYSAFDKGVRYYYGMDVWGQGTTVTVSS VL: DIQMTQSPSSLSASVGDRVTITCRASQGIRNDLGWYQQKPGKAPKRLIYAASSLQSGVPSRFSGSGSGTEFTLTISSLQPEDFATYYCLQHNSYPRTFGQGTKVEIK |  | No Activation |  | 3 | 
9 | H4H9104P: anti-APLNR antibody, HCVR/LCVR SEQ ID NOs 178/186, human IgG4 Fc (antibody, V domains shown, human IgG4 Fc) VH: QVQLVESGGDLVKPGGSLRLSCAASGFTFSDYYMNWIRQAPGKGLEWVSYISSSGSTIHYADSVKGRFTISRDNAKNLVYLRMNSLRAEDTAVYFCAREREVHDYSDPYFFFYGMDVWGQGTTVTVSS VL: DIQMTQSPSSVSASVGDRVTITCRASQDVSSWLAWYQHKPGKAPKLLIFAASSLQSGVPSRFSGSGSGTDFTLTISSLQSEDFATYYCQQANSFPLTFGGGTKVEIK | No Activation |  | did not demonstrate any measurable blockade |  | 
10 | H4H9103P: anti-APLNR antibody, HCVR/LCVR SEQ ID NOs 162/170, human IgG4 Fc (antibody, V domains shown, human IgG4 Fc) VH: EVQLVESGGGLVQPGRSLRLSCAASGFTFDDYAMHWVRQVPGKGLEWVSGITWNSGDIGYADSVKGRFTISRDNAKNSLYLQMNSLRAEDTALYYCTKDKDSSGYYGIDVWGQGTTVTVSS VL: DIQMTQSPSSVSASVGDRVTITCRASQGIRTWLAWYQQKPGKAPKLLIYAASSLQSGVPSRFSGSESGTDFTLTISSLQPEDFATYYCQQANSFPFTFGPGTKVDIK | No Activation |  | did not demonstrate any measurable blockade |  | 

The next lines start with results.

Row | % Activation at 100 nM mAb (at 5 uM Forskolin) [2] | % Activation at 100 nM mAb (at 10 uM Forskolin) [2] | Molecule | inhibition (maximum blockade) of 100ρM Apelin activation [3] | Binding Ratio of Geom. Mean to Unstained Cells, HEK293 Parental [4] | further results
11 |  | No Activation | H1M9207N: anti-APLNR antibody, HCVR/LCVR SEQ ID NOs 2/10, mouse IgG1 Fc (antibody, V domains shown, mouse IgG1 Fc) VH: EVQLVESGGGLAQPGGSLRLSCAASGFTFSNYWMSWVRQAPGKGLEWVANIKQDGSEKYYLESVKGRFTISRDNAKNLLYLQMNSLRAEDTAVFYCARPGLLRFLEPGRRYYSGMNVWGQGTTVTVSS VL: DIQLTQSPSFLSASVGDRVTITCWASQGIRSYLAWYQQKPGKAPKLLIYAASTLQSGVPSRFSGSGSGTEFTLTISSLQPEDFATYYCQQFNSYPWTFGQGTKVEIK |  | 4 | 
12 | No Activation |  | H4H9112P: anti-APLNR antibody, HCVR/LCVR SEQ ID NOs 194/202, human IgG4 Fc (antibody, V domains shown, human IgG4 Fc) VH: QVQLVQSGAEVKKPGASVEVSCKASGYTFTDYYIHWIRQAPGQGLEWMGWINPDSGRTNYAQKFQVRVTMTRDTSITTAYMELNRLKSDDTAVYYCARGPLRGYSGYDFFDYWGQGTLVTVSS VL: DIQMTQSPSSLSAFVGDRVTITCRASQSISSYLNWYQQKPGKAPKLLIYTASTLQRGVPSRFRGSGSGTDFTLTISSLQPEDFATYYCHQTYSIPITFGQGTRLEIK | did not demonstrate any measurable blockade |  | 
13 |  | No Activation | H2aM9222N: anti-APLNR antibody, HCVR/LCVR SEQ ID NOs 34/42, mouse IgG2a Fc (antibody, V domains shown, mouse IgG2a Fc) VH: EVQLVESGGGLVQPGGSLRLSCAASGFTFSNYWMSWVRQAPGKGLEWVANIKQDGSERYYVGSVKGRFTISRGDAENSLYLQMNSLRAEDTAVYYCARDRFGYSAYDKGVRYYYGMDVWGQGTTVTVSS VL: DIQMTQSPSSLSASVGDRVTITCRASQGIRNDLGWYQQKPGKAPKRLIYAASSLQSGVPSRFSGSGSGTEFTLTISSLQPEDFATYYCLQHNSYPRTFGQGTKVEIK |  | 2 | 
14 |  | No Activation | H2aM9230N: anti-APLNR antibody, HCVR/LCVR SEQ ID NOs 82/90, mouse IgG2a Fc (antibody, V domains shown, mouse IgG2a Fc) VH: EVQLVESGGGLVQPGGSLRLSCAASGFTFSSFWMSWVRQVPGKGLQWVANIKQDGSEKYYVDSVKGRFTISRDNAKNSLYLQMNSLRAEDTAVYYCARDRFGYSVYDKGVRYYYGMDVWGQGTTVTVSS VL: DIQMTQSPSSLSVSVGDRVTITCRASQGIRNDLGWYQQKPGKAPKRLIYAASSLQSGVPSRFSGSGSGTEFTLTISGLQSEDFATYYCLQHKSYPRTFGQGTKVEIK |  | 3 | 
